Laboratory results published in the domain aggregation screens of Martell et al. (2025).

Test: soluble fraction after stress (log2 fold change); higher = more stays soluble; pooled small domains, quantitative proteomics
Details: stress: 75 degC
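Further: 20 min heating vs room temperature control held 20 min.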

Row | Sequence | soluble fraction (log2)
1 | HMEKIKNLTVTEFNLIANKNPSGSYDRITREALLHIIHKLESSYEAHTDLERKLFYKFRKAKFNAL | -2.87
2 | HMHSDWITWWYLKDKRFDDDYSLWDRQPVHPEYFEVVKEFKAPPESNPGGLDEVKRILRTYIPDAFAP | -1.11
3 | HMPAYYQKEAVLDGRASVFAYERDPSSWYFKQLIPGTKKYRTKKIQGATTLEQAKSQALDIALGLRDEP | -0.0971
4 | HMSINQIADKGYITRLIDNNANIKDVLYYDASSRILAIEDPKYMFYLKNTDWNQFAKEMGFKLE | -0.794
5 | HMRTLGADLRALRKARGLTLAGMADNMGKSVGWMSQIERDISEPSISDLRALAKLLDVSVSSLFR | -2.54
6 | HMTTKGGLVRDTVLNEFRDSEFTRREVELVLNGVASERTIRGALSEMVERGELTQVNFGISTRYRLNQ | -0.563
7 | HMGMSKQKQSSLVRIIMQEISDANEGRMKMSQIIDAALIKGISDSTVRSVISRLSTTGAIYEPQTGTYEW | -0.649
8 | HMDFQTDVFISRFAELKKESGETNKDLQDVFELSLSALINYQTGKRIPDIAFLHKLAQHFGVSADYLLGLS | -0.277
9 | HMTSRIHDYWTSPGQPGYAKIGWGTAGDFRRAKALIGEKIAANSPEDMRYLNQIIAQWHFDALGYWPGDH | -3
10 | HMKEGTIPPVVNRTLSDAEFVLKSYGYELGRVSEQHSDMPKDIVIKQSPEAGTVADPGTRVDVVVSIGKA | 0.485
11 | HMADVYFDGKFLGETPVTVAVSTTGKPAHEISLIRGGYEPWSTTYQGNPRPGQTATVMAILVHA | 0.31
12 | HMRAKPLILLDGREISAEELFSLDKNSIKSIEVLKDETALAQYGEKAKNGVVLVVTKSAAAS | 0.00789
13 | HMAEWIYGKNVVKQSIEEGMVLKLILQRKEDPLFVLAQEKQIPVEILDRHKMTSLVKSDRHQGVAAQI | -0.742
14 | HMSHYDILEVDPKASATEIKQSFRKKSLQYHPDRNKSSDAHEYMTKITEAYNILGDKDKRRHYDMELKL | 0.568
15 | HMFGQRLRLARKRAGLSMQALAQRMSPPVTAQAISKYEADRMMPSSAVLVGLGKALGVSLDFLMGGQ | -2.14
16 | HMVTVSAVNITPKGHTTVGFTDRSVNPPSNYYLRVGESADGWTVKDADFDDEIATLEKDGVAITLKL | -0.228
17 | HMSFTDLILKSANAIDEMGGIWENGKQILGEKAIAIHEEIVDNGLNPDKDGFYKLANGQMIQYG | 0.0518
18 | HMAEDDAVQKAVREAVAESADAVADYKAGSERALNFIVGVVMKKTRGKASPGEVHRLVKAEVEK | 0.595
19 | HMDTINEYERNILSLITSKPGISAVQIAADTDKSIITAKRGIKTLVDGKLIEYRGSKKTGGYFLLTQS | -0.41
20 | HMKGVSFEEIERAVRTAQNPEADETAQQHAGMVFSRMEGNELFDKLVQSSSTIGKKITGLMDYYL | -0.239
21 | HMADVLLKHGSSGDYVWDLQYRLKTLSLFDQEMTGYFGPHTRQAVVNFQRKYGLPADGVVGPATWRALRK | -2.41
22 | HMDTGPISGQVEADRVEVHGHLDGKISAQNVVVGQTGVVKGDIEFGENLRTEEGADIEGYIK | 0.0611
23 | HMTDYKTNLQEFLQQDGEVEIEYKLLAEVGPSHARQFEVDVMMGDRVLGSGVGRNKKAAEQAAAKVALSKL | -0.0613
24 | HMQYKVMDVTVDGNPVIEFQNLNSKIKWIENNPDAIIQNIKTSSFEADQKRIVGTSRGPFWIVIKPDF | -0.424
25 | HMIADDLKSLEGVDQDMLRDLAEAGINTRDDLAELAIDELIEITGVSTEEAEKVIMAARAHWFEEES | 0.318
26 | HMAITLEQFLSVNPHIRNNLYGNAVELVKDKDFSVLSDKLKASSKWANEPSLYKILSHYDEIIS | -0.335

Row | Sequence | soluble fraction (log2)
27 | HMGLDERNLKLFAASLLEQAGKKITESTMTYLLDKTGSDMENIQNEVEKIIGYTMNHTVVTTEDIDAV | 0.0873
28 | HMGATYSQFLDQVDGGNVQKVTFSGDMRSGTNQISYTTRSGQSATITAPMDRDLINILRAKNVEIVQEEP | 0.232
29 | HMRRPTYPTVTTEAGMVVEDRSSGFVGDIVRWSFEGVTLRDRQQQLRHFTWKPGGFLINGTPVTLKRPE | -0.733
30 | HMSDIDIDVENDRAALAIAGGKLNHLVGARGEVLDALQELTRLAVQTSLGERSRLMLDIDNFRSD | 0.185
31 | HMALEGTLARVSVRIPESGVGEIIFSLGGVRRSEAARSVSGRAIPRGTEVVILSYERGIATVQPYEELLTN | -1.64
32 | HMSADIGAEKAKTIALNHAGVSASNAVFLHAKLDYDDGRRTYEVEFYSGSKEYDYEIDAATGEILSYDFD | -0.929
33 | HMASIGVGTIVRVANAVNYNGVKVKAWFNDEGYEVTELSGDRAVLKHNGDLFDAFHVSDLEA | -1.42
34 | HMDDAFLNKEMLKQALENLNEREKKLIYLRFYEGLTQKEIADRLSLSQMHVSRLLNESLNKLRRKI | -0.44
35 | HMYGTQTVNRGAVQPGMLVKHKDSTWTASANARGRLYLHRGVEMTYTRDLLVEVYLNGLGNGL | 0.158
36 | HMTIEEMAIENINFSTQLLYKAMKYNGVNTVGDLLEKARSKKDLLTMAYIGNKEAEEIIEKLSELGITI | -1.63
37 | HMQEQIVQGIVKYFDAEKQFGFIAGDDGVDRFFNAKSIQGNAVKTGDRVRFLAISHIRGPRALKISA | -1.24
38 | HMNPDMIAGVLKVPAAAGRLRSALFELGVVDDESYDDDGASRLTVTASQSDLERIVAQAGLVFEDVLVERR | -0.142
39 | HMQINDSSVVQKAVNDVIDQNSKAVSDYWDGKEGAAKFLMGQVMKLTRGQANPDLANQLILTRLQQERV | 0.437
40 | HMSTDSTQLLGFNKTGEELPIYKEANEENKFAEIPQNVYVKNFGQNGEFTKIKYLDQEGYVKTAGLK | 0.955
41 | HMKIMSLSERHQKILELLKVNGIVSVNSLSRQLNVSSVTIRKDLGLLEEKKLLYRSHGGAIQID | -3.35
42 | HMSPPPRPSHPEAAGLRHLAFEVDNIDDAVRHLDRLGVPHEPVRTDEYTGRRFLFFTDPDRLPLELYEK | -0.432
43 | HMPASVSAIRKYLGGGSFKGVGPALAKRIVDAFGEYTIETIENDPKQLAKVKGVSEKMALEINTQ | -0.582
44 | HMQVEEKNKKIELYIEGKIKELESNLMYVPNENKKKLLMAFMNRNEDIEIIKTKIDTIFNKSVAAYKENM | -0.302
45 | HMTTIRQQAEVPLSAAGRRFDQALAEMFPAYSRSRLSGWIKAGAATLDGAPAAPRQLLRGGERVELDVELE | -0.166
46 | HMNSKKETLLSYLYNHSTWSSRNDLSNFLNVSTRQVTNYINEINKNETIVLSSNKGYKINPKFIGKN | -1.61
47 | HMTLQEFYARVGGDYNATLSRLPSEALVKKFILKYPGDPSFAQLKDALAAQDWELAFRASHTLKGVAQN | -1.9
48 | HMNIETHIVPKLLAPIRLQEYGVGIFNNIPTKSALKKALKKQLITVDKTVATTATFIKGGETIELAYQ | -3.07
49 | HMNSKMTYSDLIGNIEQGNVSSVELASDGKSATVTLTDNSQKQVNIPSLDSFVTYVQDHIKAGTLSVEE | 0.344
50 | HMTPVKAPLPGVVTKINVSVGQQVKKGENVLVLEAMKMENNIAAEADGTVSGIAVKAGDSVLEGAVLLTI | 0.0213
51 | HMNKTEIISILEKIVLPTQIRNINIFGSEVIIDLNIDNPSLHAKKKLEKSIINSFDKNHKIIINFNVE | -0.238
52 | HMALKSYEDMVGKTGVAYTVLRPSGKVIINDELFDATARSGMIEKGNEVIIYDYKNAQLIVEK | 0.263

Row | Sequence | soluble fraction (log2)
53 | HMVKSSVTEVISMINALPVTVKPEDKADIISARMAYDTLTEDEKALVTNYEILTAAETRFNELIATT | 0.275
54 | HMLDLPVKTINGKQYYYYTVKKGDTVYSLITRFGITRSDLVESNPAAADVLKTGDTLYFAVDKFG | -1.19
55 | HMLLTHPKRVFTYELIMELVWNEDYTFYSKKAVSNHMSNLRKKLKVTPDALDYIKNIVGVGYKFEA | -1.11
56 | HMGKRRGLKVAEEVFADRGYNPDGTLVNRSLPGAFVKDPDEAIARVIKMVKTKKVTAVNGEEIDIAADSI | -0.0957
57 | HMVPVQLTPRELQVARLAAHGASSPEIAAELRVSRRTVDNQLGRVYAKLGIAGRAELAAALSRLPVSV | -1.07
58 | HMPMINLYQRLNLPPTASRAEIEAALAQYRSELSTAEIRGVQEWLLVNEVRHRYDAKLRQEQPSFFI | -1.08
59 | HMTAKRELILRVFMDSNGKLLSIDDVFMEMRKKRSHRTSKMTVKRAIDLLVDLGLLKEVLFDDDNIKYEYV | -1.26
60 | HMKKTITISNYINVRDFATMSELPVNSILSVLMKNGIFVSLNEKIDFDTAWLVGSELGLEVKQKQG | -1.58
61 | HMRSISVEMDGKEYLIPTVSENGKVLSDDDAVKQFKKTGKHLDVFDSPEDATAYARQLHEDQESFYA | 0.231
62 | HMITLYDLLGVSKTASSQEIKTAFKKKALQYHPDKNDGNPDKEEIFKRINMAYQVLGQPQSRANYDFSITP | -0.483
63 | HMLINLGPRIRKERRSKGISQSDFSKNLGISASYLNLLENGRRTLTVPLLIKIGNELNLSLKDL | -0.125
64 | HMNMYTVTGRLVDQDGVPQANALVTIDSSSQQTRTSPQGFYLIKVFGTEPSTIKFLVDGYDPQIVNFTP | -0.466
65 | HMSTMKIVRVKSNLKIGQEITSKDIEVVEVGAYNMPSEVMKNSEDVIGKYASAEMIKGEYVLAAKISDTP | 0.151
66 | HMQNPDHLLALAAAAQAAIELGRPDEAEAYYRHLVEVYGVEMASQKPEYLDHSGITNDLRNVAEGFLVG | -1.06
67 | HMSNYYNILGVNKSSTQDEIKKAFRKKAVEHHPDKGGNEATFKKINEAYNTLSDNNKRHMYDMQQSG | 0.119
68 | HMTPVTYELTVQSGAGQRIDKYLSEQLADLTRSYLQKLLKDGGVTVNGKTVKSNYKLSENDQIFLEVPDA | 0.0544
69 | HMEALASESVKDKIRKIIDSEDPSRPMSDQRIKEMLKAANIDIARRTVTKYREAMNILSSTKRRQV | -0.432
70 | HMGLDPVFKKWVDDNPWYTENRVLRALTHDYAEELKQTNPQLVGVEFLDQVKKRVQADHPEFFQ | 0.0133
71 | HMLDFLVSKYESELLADLLWSLGVVAVEEREATGDLVTLRTSLGDDHSFTRELVQEKFPDVIVSTAL | -1.74
72 | HMSLIEQKSQIPLVQGGQRVDKVAAALFTDFSRAELTGWIQQGALTLDGAVVKPKYKVLGGEWLYLRASQS | -1.75
73 | HMEDLMEERKEHLLSVMKDPAYVPMKQKELAMLLNVPKGLREELNQVLDALVAEGSVVMSKRGKYTIPQ | -0.0948
74 | HMITNMIIIMKPNASEEAIEKVKHLIESKGLQAHLSKGDEVTIVGVVGDKTRLHDSNIEISEGVDKIVNVT | 0.497
75 | HMHHGALKQALLDETARILAEEGESALSLRRLASNLGVSRTAPYNHFDNKDALLSAVAEEGFRR | -0.0868
76 | HMYEDSNQSLNFFAIKFIKEKNIKISQETTNLIVERARGDRGNLINELQKLEALSLTRKKITQEDVFNLTN | -1.99
